Reference: publication PMC10869706, “Chp1 is a dedicated chaperone at the ribosome that safeguards eEF1A biogenesis” (Nature Communications, 2024)
Substitutions are numbered along the chain they refer to.

Tests used:
[1] = target: T1, V5-eEF1A M102V (yeast (S. cerevisiae), UniProt P02994 1-458, M102V); assay: co-IP; co-IP of V5-eEF1A variants with Chp1 from yeast lysate (GFP-Trap/V5-Trap; 20 mM Tris pH 7.4, 150 mM NaCl, 2 mM MgCl2, 2 mM EDTA, 5% glycerol, 0.25% NP-40), 2 h at 4 °C, immunoblot, quantified; details: partners not purified
T1 construct: eEF1A (Tef2), yeast, with a change that represents a human EEF1A2 polymorphism; source: expressed in yeast cells, in lysate; not shown: V5, N-terminal, kept
T1 sequence (looked up): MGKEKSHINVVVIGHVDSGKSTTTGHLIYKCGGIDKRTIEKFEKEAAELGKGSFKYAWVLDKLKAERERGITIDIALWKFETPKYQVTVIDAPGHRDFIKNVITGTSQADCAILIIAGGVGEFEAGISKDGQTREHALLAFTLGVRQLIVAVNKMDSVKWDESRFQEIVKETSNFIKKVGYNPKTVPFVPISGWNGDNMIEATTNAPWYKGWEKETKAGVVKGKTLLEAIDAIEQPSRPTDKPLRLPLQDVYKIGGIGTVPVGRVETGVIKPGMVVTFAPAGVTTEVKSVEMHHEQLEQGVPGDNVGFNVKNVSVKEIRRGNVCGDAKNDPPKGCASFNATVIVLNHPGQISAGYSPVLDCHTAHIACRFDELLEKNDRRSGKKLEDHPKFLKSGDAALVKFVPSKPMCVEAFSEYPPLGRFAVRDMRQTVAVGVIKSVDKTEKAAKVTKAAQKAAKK

[2] = target: T2, V5-eEF1A F98C (yeast (S. cerevisiae), UniProt P02994 1-458, F98C); assay: as above; details: partners not purified
T2 construct: eEF1A (Tef2), yeast, with a change that represents a human EEF1A2 polymorphism; source: expressed in yeast cells, in lysate; not shown: V5, N-terminal, kept
T2 sequence (looked up): T1 sequence (looked up) with F98C, V102M

fold increase in Chp1 binding (against WT eEF1A) [1]: 3 fold
fold increase in Chp1 binding (against WT eEF1A) [2]: 3 fold
B1: Chp1 (in yeast cells expressing V5-eEF1A) (natural protein, yeast (S. cerevisiae), UniProt Q08971 1-146, looked up)
chain: MSTFNAETADNLEDIEKQFAVVAVEQAETYWKLLTSVPGSKLRLTKFDDEIYENFMERFPEYKDVERVKKFTEEELKTKEAKERWRKFFTIFEKKIEDYNFGTLLRTDASAEYGQFTTCFVVRLQFYAFEIARNKHGLNDWIVGQK
notes: Chp1 (ORF YPL225w), yeast; source: yeast cells, in lysate
